Results on 26 molecules are retold here after patent publication US20230391891A1 (SYNTHEKINE, published 2023).

Residue numbers refer to the chain shown, from its start.

For assay [1], the target named is T1, extracellular domain of hIL10Rb (human, UniProt Q08334 20-220).
T1 construct: also called hIL10Rb ECD; human IL10Rb
T1 sequence: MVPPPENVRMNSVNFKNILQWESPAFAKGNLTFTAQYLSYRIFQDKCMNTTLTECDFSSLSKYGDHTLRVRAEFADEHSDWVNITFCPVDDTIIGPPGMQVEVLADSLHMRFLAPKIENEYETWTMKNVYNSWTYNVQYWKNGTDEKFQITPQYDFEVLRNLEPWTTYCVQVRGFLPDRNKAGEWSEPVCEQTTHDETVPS
In words: flow cytometry. A general note: Flow cytometry measures light scatter and fluorescence of single cells or particles in a stream.

Assay [2] has as its target T2, extracellular domain of mIL10Rb (mouse, UniProt Q61190 20-220).
T2 construct: also called mIL10Rb ECD; murine IL10Rb
T2 sequence: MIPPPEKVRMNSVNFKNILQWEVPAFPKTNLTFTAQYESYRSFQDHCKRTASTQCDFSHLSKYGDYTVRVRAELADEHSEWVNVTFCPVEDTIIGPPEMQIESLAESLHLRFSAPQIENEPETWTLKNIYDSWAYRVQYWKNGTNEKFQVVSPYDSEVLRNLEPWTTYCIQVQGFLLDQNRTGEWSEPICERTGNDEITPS
In words: flow cytometry, cross-reactivity.

B1: hIL10Rb_VHH-15 (VHH)
VHH: QVQLQESGGGSVQAGGSLRLSCTVSRYTASVNYMGWFRQAPGKEREGVATIFTGAGTTYYANSVKGRFTISRDNAKNTAYLQMNSLKPEDTAIYYCAVDFRGGLLYRPAYEYTYRGQGTQVTVSS
notes: anti-hIL10Rb camel VHH
Consider B1, for which the binding result in assay [1] was “binds”.

B2: hIL10Rb_VHH-17 (VHH)
VHH: B1 VHH with I93M
notes: anti-hIL10Rb camel VHH
Take B2: in assay [1], the binding result was “binds”.

B3: hIL10Rb_VHH-27 (VHH)
VHH: QVQLQESGGGSVQTGGSLRLSCAASGYTYLRGCMGWFRQAPGKEREGVAVMDVVGDRRSYIDSVKGRFTISRDNAANSVYLQMDNLKPEDTAMYYCTAGPNCVGWRSGLDYWGQGTQVTVSS
notes: anti-hIL10Rb camel VHH
B3: the binding result in assay [1] is listed as “binds”.

B4: hIL10Rb_VHH-4 (VHH)
VHH: QVQLQESGGGSIQAGGSLRLSCAASRYLYSIDYMAWFRQSPGKEREPVAVIYTASGATFYPDSVKGRFTISQDNAKMTVYLQMNSLKSEDTAMYYCAAVRKTDSYLFDAQSFTYWGQGTQVTVSS
notes: anti-hIL10Rb camel VHH
Regarding B4, the binding result in assay [2] and in assay [1] was “binds” throughout.

B5: hIL10Rb_VHH-6 (VHH)
VHH: B4 VHH with R19T, Y27D, I31T, D32N, M34V, P47A, F59L, P61S, D103G, S104H
notes: anti-hIL10Rb camel VHH
With B5, the binding result in assay [2] and in assay [1] was “binds” in each case.

B6: hIL10Rb_VHH-12 (VHH)
VHH: QVQLQESGGGSVQAGGSLRLSCAASGYTYSSYCMGWFRQAPGKEREGVAHIDSDGSTSYADSVKGRFTISKDNAKNTLYLQMNSLKPEDTAMYYCAADPIPGPGYCDGGPNKYWGQGTQVTVSS
notes: anti-hIL10Rb camel VHH
In the case of B6, the binding result in assay [2] and in assay [1] was “binds” each time.

B7: hIL10Rb_VHH-24 (VHH)
VHH: B6 VHH with R19K, S58T, K112N
notes: anti-hIL10Rb camel VHH
With B7, the binding result in assay [2] and in assay [1] was “binds” throughout.

B8: hIL10Rb_VHH-10 (VHH)
VHH: B6 VHH with S11L, A14P, S58T, T68A
notes: anti-hIL10Rb camel VHH
Turning to B8, the binding result in assay [2] and in assay [1] was “binds” each time.

B9: hIL10Rb_VHH-13 (VHH)
VHH: B6 VHH with K112N
notes: anti-hIL10Rb camel VHH
With B9, the binding result in assay [2] and in assay [1] was “binds” in each case.

B10: hIL10Rb_VHH-20 (VHH)
VHH: B6 VHH with S58T, T68A
notes: anti-hIL10Rb camel VHH
Regarding B10, the binding result in assay [2] and in assay [1] was “binds” throughout.

B11: hIL10Rb_VHH-19 (VHH)
VHH: B6 VHH with W114R
notes: anti-hIL10Rb camel VHH
In the case of B11, the binding result in assay [2] and in assay [1] was “binds” throughout.

B12: hIL10Rb_VHH-22 (VHH)
VHH: B6 VHH with Y29D, S31R, Q39K
notes: anti-hIL10Rb camel VHH
B12: the binding result in assay [2] and in assay [1] was “binds” throughout.

B13: hIL10Rb_VHH-5 (VHH)
VHH: B6 VHH with S11L, A14P, S58T
notes: anti-hIL10Rb camel VHH
For B13, the binding result in assay [1] is given as “binds”.

B14: hIL10Rb_VHH-25 (VHH)
VHH: B6 VHH with V48I, S58T, K112N
notes: anti-hIL10Rb camel VHH
For B14, the binding result in assay [2] and in assay [1] was “binds” throughout.

B15: hIL10Rb_VHH-26 (VHH)
VHH: QVQLQESGGGSVQAGGSLRLSCAASGYSYSSYCMGWFRQAPGKEREGVATIDSDGMTRYADSVKGRFTISKDNAKNTLYLQMNSLKPEDTAMYYCAAPLYDCDSGAVGRNPPYWGQGTQVTVSS
notes: anti-hIL10Rb camel VHH
For B15, the binding result in assay [2] and in assay [1] was “binds” each time.

B16: hIL10Rb_VHH-3 (VHH)
VHH: QVQLQESGGGSVQAGGSLRLSCAASRYTYNSYCMGWFRQAPGKEREGVATIDSDGMTRYADSVKGRFTISKDNAKNTLYLQMNSLKPEDTAMYYCAADADCTIAAMTTNPLGQGTQVTVSS
notes: anti-hIL10Rb camel VHH
In the case of B16, the binding result in assay [2] and in assay [1] was “binds” each time.

B17: hIL10Rb_VHH-2 (VHH)
VHH: QVQLQESGGGSVQAGGSLRLSCAASGYTYSSYCMGWFRQAPGKEREGVAAIDSDGSTRYADSVKGRFTISKDNAKNTLYLQMNSLKPEDTAMYYCAAEPYCSGGYKRTMVAEFGYWGQGTQVTVSS
notes: anti-hIL10Rb camel VHH
Regarding B17, the binding result in assay [1] is listed as “binds”.

B18: hIL10Rb_VHH-18 (VHH)
VHH: B17 VHH with Y27D, A50F, K64E, K106H, T108K, M109E, V110M
notes: anti-hIL10Rb camel VHH
Turning to B18, the binding result in assay [1] is “binds”.

B19: hIL10Rb_VHH-14 (VHH)
VHH: B17 VHH with Y32G, A50T, D52N, R58N, A91G, K106P, T108W, M109S
notes: anti-hIL10Rb camel VHH
In the case of B19, in assay [1], the binding result was “binds”.

B20: hIL10Rb_VHH-11 (VHH)
VHH: B17 VHH with E44G
notes: anti-hIL10Rb camel VHH
For the molecule B20, the binding result in assay [1] is reported as “binds”.

B21: hIL10Rb_VHH-8 (VHH)
VHH: QVQLQESGGGSVQAGGSLRLSCAASGYSYSSYCMGWFRQAPGKEREGVAAIASDGSTSYADSVKGRFAISKDNAKNTLYLQMASLKPEDTAMYYCAAEPWCTGGYSRLTPAEYGYWGQGTQVTVSS
notes: anti-hIL10Rb camel VHH
On to B21, for which, in assay [1], the binding result is reported as “binds”.

B22: hIL10Rb_VHH-7 (VHH)
VHH: B17 VHH with Y32G, A50T, D52N, R58N, K106P, T108W, M109S
notes: anti-hIL10Rb camel VHH
In the case of B22, in assay [1], the binding result is given as “binds”.

B23: hIL10Rb_VHH-23 (VHH)
VHH: B17 VHH with N76K, T77I, P87V, Y115F
notes: anti-hIL10Rb camel VHH
Take B23: the binding result in assay [1] is “binds”.

B24: hIL10Rb_VHH-1 (VHH)
VHH: B17 VHH with Y32G, G47A, D52N, R58S, K106P, T108W, M109S
notes: anti-hIL10Rb camel VHH
Take B24: the binding result in assay [1] is “binds”.

B25: hIL10Rb_VHH-9 (VHH)
VHH: B17 VHH with S11L, A14P, Y32G, A50T, D52N, R58N, K106P, T108W, M109S
notes: anti-hIL10Rb camel VHH
On to B25, for which the binding result in assay [1] is reported as “binds”.

B26: hIL10Rb_VHH-16 (VHH)
VHH: QVQLQESGGGSVEAGGSLRLSCAASGYTHSSYCMGWFRQAPGKEREGVAAIDVDGSTTYADSVKGRFTISKDNAKNTLYLQMNSLKPEDTGMYYCAAEFADCSSNYFLPPGAVRYWGQGTQVTVSS
notes: anti-hIL10Rb camel VHH
For the molecule B26, the binding result in assay [2] and in assay [1] was “binds” throughout.
